Values quoted from earlier work, collected in publication PMC8395526.

Target: erbB2 (Homo sapiens) (UniProt P04626)
Assay: SPR

Kd: 1890 nM
Substance: erbB2-SbdIV subdomain IV (from UniProt P04626)
